Laboratory results as given in article PMC8593154.

What was measured:
[1] = target: γB2ΔICD-EC5-Venus (mouse) (UniProt Q91XX7); experiment: FRET or BRET; acceptor photobleaching at cell adhesion sites of co-cultured HEK293T cells individually expressing donor (mTQ2) and acceptor (Venus) constructs; trans interaction across cells
[2] = target: γB2ΔICD-EC5-VenusΔN3C9-P3 (mouse) (UniProt Q91XX7); experiment: as above

FRET efficiency [1] [%] | FRET efficiency [2] [%] | Substance
14.1 | – | γB2ΔICD-EC1-mTQ2 (from UniProt Q91XX7 1-738) (receptor)
– | 27.4 | γB2ΔICD-EC1-G4S-mTQ2ΔC6 (from UniProt Q91XX7 1-738) (receptor)
